From patent publication US20240262906A1 (WELLMARKER BIO, published 2024) come the findings set out here.

The assay has as its target T1, IGSF1 overexpressed on cells (NCI-H292 IGSF1 O/E; HEK293E IGSF1 O/E) (human, UniProt Q8N6C5 581-1336).
T1 construct: Membrane protein expressed from a commercial vector (OriGene RC209621); also called IGSF1 antigen in cells
T1 sequence: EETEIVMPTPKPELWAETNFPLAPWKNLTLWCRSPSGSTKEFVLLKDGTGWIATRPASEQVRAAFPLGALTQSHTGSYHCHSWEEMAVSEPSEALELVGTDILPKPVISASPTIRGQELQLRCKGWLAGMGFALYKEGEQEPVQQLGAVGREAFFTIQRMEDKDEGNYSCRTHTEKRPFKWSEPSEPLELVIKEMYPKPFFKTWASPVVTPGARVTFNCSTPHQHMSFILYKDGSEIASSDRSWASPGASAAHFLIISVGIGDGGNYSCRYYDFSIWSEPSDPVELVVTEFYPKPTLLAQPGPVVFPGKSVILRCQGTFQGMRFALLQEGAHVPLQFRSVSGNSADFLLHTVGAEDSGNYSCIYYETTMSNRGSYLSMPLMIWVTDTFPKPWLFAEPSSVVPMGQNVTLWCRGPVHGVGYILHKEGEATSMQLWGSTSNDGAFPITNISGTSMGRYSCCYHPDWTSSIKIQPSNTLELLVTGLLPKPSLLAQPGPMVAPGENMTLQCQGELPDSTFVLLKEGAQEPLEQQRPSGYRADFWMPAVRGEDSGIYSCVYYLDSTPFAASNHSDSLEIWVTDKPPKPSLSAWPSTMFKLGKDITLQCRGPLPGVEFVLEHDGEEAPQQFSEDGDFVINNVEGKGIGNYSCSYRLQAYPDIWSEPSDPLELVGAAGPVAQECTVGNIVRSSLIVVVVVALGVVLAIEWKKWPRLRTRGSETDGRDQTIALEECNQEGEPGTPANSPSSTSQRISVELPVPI
In words: flow cytometry on NCI-H292 IGSF1 O/E cells, FITC anti-human IgG detection. How it is done:
Specifically, the medium of NCI-H292 IGSF1 O/E cells and NCI-H292 MOCK cells was removed, washed once with PBS, and then treated with 2 ml of 0.25% trypsin-EDTA, and the cells were isolated. The isolated cells were diluted with 8 ml of PBS (hereinafter referred to as FACS buffer) containing 2% FBS and 0.05% sodium azide, and then the supernatant was removed by centrifugation at 1,200 rpm for 1 minute. Then, the cells were resuspended in FACS buffer to 1×10⁵ cells/ml. Thereafter, 1 ml of each was dispensed in a FACS tube, and the supernatant was removed by centrifugation at 1,200 rpm for 1 minute.
After the reaction was completed, 1 ml of FACS buffer was added to each tube, and the supernatant was removed by centrifugation at 1,200 rpm for 1 minute. This process was performed a total of two times. […]
Finally, after removal of the supernatant, the remaining pellet was resuspended in 200 μl of FACS buffer and analyzed by FACS. For FACS analysis, FITC fluorescence value labeled in each cell was measured using a BD LSRFortessa™ flow cytometer, and then the results were analyzed using a FlowJo software, and EC50 value was calculated using a sigma plot program. […]

B1: WM-A1-3389 antibody (antibody, human IgG1, kappa, V domains shown)
VH: QVQLVQSGAEVKRPGSSVKVSCKASGGTFSTYAISWVRQAPGQGLEWMGRIIPFVGTVDYAQKFQDRVTITADKSTNTAYMELSSLRSEDTAVYYCVRDGGRSYFDSWGPGILVTVSS
VL: QFVLTQPPSVSAAPGQDVIISCSGNTSNIGSNLVSWFQQFPETAPKLLIYDNHKRPSGISDRFSGTKSGTSASLAISGLQSEDEADYYCVAWDDSLNGYVFGTGTKVTVLR
notes: Human antibody from a phage library, converted to whole IgG; also called anti-IGSF1 antibody
B1 yielded a concentration giving a half-maximal response (EC50) of approximately 69 nM.
